For the assay, the target named is T1, Vps8 with 3xFLAG tag (CORVET subunit) (yeast, UniProt P39702 1-1274).
T1 construct: UniProt P39702 printed for its AlphaFold model
T1 sequence: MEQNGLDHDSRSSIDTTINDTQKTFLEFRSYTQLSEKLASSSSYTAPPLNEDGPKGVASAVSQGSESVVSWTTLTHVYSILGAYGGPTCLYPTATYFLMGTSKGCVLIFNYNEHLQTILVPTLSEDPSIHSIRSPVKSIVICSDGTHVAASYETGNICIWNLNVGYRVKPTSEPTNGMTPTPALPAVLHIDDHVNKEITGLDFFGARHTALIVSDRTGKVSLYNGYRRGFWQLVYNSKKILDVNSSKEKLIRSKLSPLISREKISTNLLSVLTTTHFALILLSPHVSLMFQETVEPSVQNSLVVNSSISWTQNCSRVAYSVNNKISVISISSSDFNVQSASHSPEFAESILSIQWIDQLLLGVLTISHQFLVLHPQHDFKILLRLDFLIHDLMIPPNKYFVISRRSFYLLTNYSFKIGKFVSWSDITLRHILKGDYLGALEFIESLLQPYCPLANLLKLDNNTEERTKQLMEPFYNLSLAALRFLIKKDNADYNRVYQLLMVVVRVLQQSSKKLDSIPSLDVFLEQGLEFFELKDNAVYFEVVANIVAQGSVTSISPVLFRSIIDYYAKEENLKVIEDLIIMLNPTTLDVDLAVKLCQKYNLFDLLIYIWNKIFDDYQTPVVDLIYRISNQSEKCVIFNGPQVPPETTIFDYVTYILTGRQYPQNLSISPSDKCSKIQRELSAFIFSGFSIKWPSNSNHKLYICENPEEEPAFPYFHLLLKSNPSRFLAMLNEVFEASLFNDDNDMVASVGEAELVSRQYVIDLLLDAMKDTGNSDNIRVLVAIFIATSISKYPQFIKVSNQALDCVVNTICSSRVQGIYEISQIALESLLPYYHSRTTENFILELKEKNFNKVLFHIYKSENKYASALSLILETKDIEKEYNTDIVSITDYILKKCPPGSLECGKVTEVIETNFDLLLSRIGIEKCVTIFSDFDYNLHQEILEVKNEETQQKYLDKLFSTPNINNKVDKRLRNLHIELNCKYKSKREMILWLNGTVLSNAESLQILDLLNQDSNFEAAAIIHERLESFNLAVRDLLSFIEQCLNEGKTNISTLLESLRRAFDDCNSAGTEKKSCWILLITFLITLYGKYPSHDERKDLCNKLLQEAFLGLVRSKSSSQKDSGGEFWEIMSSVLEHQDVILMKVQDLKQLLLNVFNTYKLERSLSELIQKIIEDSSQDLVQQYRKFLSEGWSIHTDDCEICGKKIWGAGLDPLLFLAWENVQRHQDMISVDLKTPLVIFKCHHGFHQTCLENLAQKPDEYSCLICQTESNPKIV
Nature of the assay: cryo-EM structure; single-particle cryo-EM of the hexameric CORVET co-expressed in yeast and purified by 3xFLAG on Vps8 and SEC; about 0.8 mg/ml; consensus map 4.6 Å, local refinements to 3.8 Å. To be noted: both partners purified.

B1: Vps11 (CORVET and HOPS core subunit) (natural protein, yeast)
chain: MSLSSWRQFQLFENIPIRDPNFGGDSLLYSDPTLCAATIVDPQTLIIAVNSNIIKVVKLNQSQVIHEFQSFPHDFQITFLKVINGEFLVALAESIGKPSLIRVYKLEKLPNREQLYHSQVELKNGNNTYPISVVSISNDLSCIVVGFINGKIILIRGDISRDRGSQQRIIYEDPSKEPITALFLNNDATACFAATTSRILLFNTTGRNRGRPSLVLNSKNGLDLNCGSFNPATNEFICCLSNFIEFFSSSGKKHQFAFDLSLRKRIFCVDKDHILIVTEETGVPTTSISVNELSPTIINRIFIIDAKNKIISLNFVVSSAIIDIFSTSQSGKNITYLLTSEGVMHRITPKSLENQINIIIQKELYPFALQLAKQHSLSPLDVQEIHKKYGDYLFKKGLRKEATDQYIQCLDVVETSEIISKFGVKEVPDPESMRNLADYLWSLIKNSISQRDHVTLLLIVLIKLKDVEGIDTFIQHFDRKGIWNEGVVMDDMDDVTFFYSDNDFFDLDLILELMKESDFKRLSYRLAKKYSKDSLIIVDILLNLLHNPVKAIKYIKSLPIDETLRCLVTYSKKLLEESPNETNALLIEVFTGKFKPSTFEVDLDRRDTTGDFSENIRTVFYSYKTFFNYMNSNGTSDAMSESSEASHEHEEPTYHPPKPSIVFSSFVTKPFEFVVFLEACLACYQQYEGFDEDRQVILTTLYDLYLNLAQNDVPERIDDWRSRATGVLRESNKLVYSAASNNTSKRVDNSIMLLISHMDQSSASAKDKTKIDIASFANDNPEMDLLSTFRAMTLNEEPSTCLKFLEKYGTEEPKLLQVALSYFVSNKLIFKEMGGNEVLKEKVLRPIIEGERMPLLDIIKALSRTNVAHFGLIQDIIIDHVKTEDTEIKRNEKLIESYDKELKEKNKKLKNTINSDQPLHVPLKNQTCFMCRLTLDIPVVFFKCGHIYHQHCLNEEEDTLESERKLFKCPKCLVDLETSNKLFEAQHEVVEKNDLLNFALNSEEGSRDRFKVITEFLGRGAISYSDITI
notes: Vps11, yeast, core subunit shared by CORVET and HOPS
On to B1, for which the binding result was “binds”.

These data come from publication PMC11187117, “Structure of the endosomal CORVET tethering complex” (Nature Communications, 2024).
